Measured values taken from the supplement of paper PMC10567573.

B1: CDC25A (parent)
chain: KKFRTKSRTWAGEKSKREMYSRLK
B2: BTBD10 (parent)
chain: DRKLHSRPRKLYKHSSTSSRIAKG

Variants of: B1
Assay: protein stability index of a GFP-peptide fusion (GPS, HEK-293T) (PSI 1-6); higher = more stable
Settings: c terminus: a fixed tail appended
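Also: lentivirally expressed fusions sorted by FACS into six bins by GFP to DsRed ratio, PSI derived from sequencing read proportions per bin multiplied by bin number.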

Protein stability index of substitutions, site by site:
T5: P 2.39; S 3.71; E 3.37; Q 3.23; A 2.15; M 2.62; C 2.87
R17: S 3.08; I 3.25
E13: W 3.5; L 4.12
K2: Y 3.09; E 3.27
L23: P 3.94; M 2.73
K6: Y 2.92; Q 2.58; F 2.37; D 3.57
Y20: Q 4.34; N 3.02; S 4.69; H 3.01
S7: Q 2.39; V 2.01; M 2.42
E18: T 2.19; K 1.94
T9: W 2.79; S 3.31; P 3.12
K16: G 2.79
R4: W 2.71; S 2.42; Y 3.63; F 2.71; G 2.5; E 3.76; C 3.02
S15: N 2.52; C 3.4; F 3.34; W 1.3
A11: L 2.5; E 2.81
W10: D 3.9; F 3.47
F3: P 2.85; H 3.1; K 3.16; C 3.22
K24: M 2.37; Y 1.37; R 2.91; H 2.62
M19: T 3
G12: M 3.44; C 2.61
R8: P 3.21; E 4.16; S 2.7; D 3.57; H 2.84
S21: Y 2.01; E 3.01; M 3.36; A 2.97; T 2.56

Variants of: B2
Assay: as above
Settings: c terminus: a fixed tail appended

Protein stability index, by site and new letter:
L4: W 3.5; Y 3.8; T 4.3; K 4.28; R 3.9; V 3.71; F 3.92; N 3.77; A 4.42; M 4.23; S 4.71; G 3.72; Q 4.08; I 3.62; H 4.09; D 4.49; P 4.11; E 4.28; C 3.9
H5: G 2.82; V 3.02; A 4.22; S 4.34; M 3.43; N 5.44; L 3.72; T 4.17; E 4.09; K 4.09; W 3.16; D 3.99; P 4.5; F 4.43; Y 3.02; R 3.9; I 3.74; C 3.9; Q 3.69
H14: Q 3.79; K 3.64; D 3.58; M 3.67; R 4.05; E 4.13; T 4.19; C 4.41; N 4.43; A 4.27; S 3.66; P 3.54; W 3.61; Y 2.79; L 3.4; F 4.44; I 3.88
L11: H 3.93; M 4.67; S 4.57; E 4.49; N 3.46; V 3.82; F 4.91; D 3.71; T 4.82; G 4.16; K 4.19; R 4.42; A 4.08; P 3.79; W 3.67; C 2.99; Q 4.13; I 3.61; Y 3.7
S6: W 2.92; Q 3.89; N 4.04; R 3.39; E 4.41; I 3.58; Y 3.78; P 4.42; G 3.48; K 3.55; T 3.76; V 3.91; L 2.4; F 3.18; C 3.43; D 4.69; A 3.67; H 3.68; M 3.46
K3: F 3.24; D 4.42; E 4.03; Y 3.37; Q 3.87; N 3.55; I 3.47; W 3.64; T 3.83; S 3.57; M 3.56; R 3.63; H 4.41; P 3.92; C 3.95; L 3.77; A 4.52; V 3.92
K13: G 4.42; I 2.68; N 3.61; D 4.23; Y 3.6; Q 4.12; V 3.69; L 2.84; A 4.04; E 4.47; T 4; W 3.55; S 3.52; C 3.68; R 3.74; P 3.86; M 2.84; H 3.65; F 2.77
R7: T 4.31; I 3.31; P 4.33; G 4.33; A 3.98; E 4.41; S 4.21; Q 4.4; K 3.33; W 2.97; H 3.79; V 3.28; F 2.59; N 4.1; M 3.84; D 4.54; C 3.76; L 2.84; Y 3.83
P8: I 3.65; H 4.12; D 4.51; K 3.67; G 3.68; T 3.31; Q 4.24; V 3.05; C 4.03; W 3.95; Y 2.82; A 4.2; N 3.81; L 2.76; E 4.08; M 3.02; R 3.18; F 2.21; S 3.5
K10: R 3.97; N 4.07; I 2.62; D 4.21; E 2.8; T 3.58; W 3.33; L 3.77; S 4.09; A 3.67; H 4.07; M 3.24; P 3.25; F 3.18; Y 3.94; C 3.55; G 3.52; V 3.72; Q 4.08
S15: A 4.23; C 3.89; D 4.22
D1: E 3.89; V 3.93; K 3.2; H 3.42; A 3.27; Y 3.03; S 3.89; G 3.47; W 2.8; N 4; P 3.42; R 3.05; I 2.54; T 3.16; C 3.94; Q 3.81; L 3.2; M 3.8; F 2.9
R9: H 3.7; V 3.82; L 3.85; W 3.51; G 4.3; C 3.74; E 4.19; A 4.1; P 3.69; S 4.47; I 3.02; Q 4.11; N 4.13; Y 3.64; D 4.01; F 3.27; T 3.84; M 3.74; K 4.17
Y12: H 3.78; I 3.3; F 4.01; L 3.88; D 4.27; P 4.15; K 4.72; C 3.84; M 3.11; R 4.21; G 4.65; N 4.12; A 4.54; Q 4.01; E 4.28; S 4.65; V 4.08; W 4.1; T 4.05
R2: N 3.96; G 3.95; I 2.66; F 2.65; S 4.14; Q 4.19; C 3.62; K 3.83; A 3.42; V 3.65; H 4.46; P 4.02; W 3.68; Y 3.16; T 4.09; D 4.04; L 2.7; M 3.89; E 4.39
